The values that follow come from patent publication US20180201654A1, “PEPTIDE INHIBITORS OF HAUSP DEUBIQUITINASE” (priority 2012, published 2018).

The target in the experiment is HAUSP TRAF domain (HAUSP^62-205) (human), Q93009. Put plainly: ITC, titration against the HAUSP TRAF domain, 20 C. On the technique in general: In ITC the heat of successive injections is recorded.

Usually Kd stands for the concentration at which binding is half-saturated. The low end stands for a tighter complex, the high end for a looser complex.

Chain of HAUSP TRAF domain (HAUSP^62-205) (human), Q93009 (Q93009 62-205): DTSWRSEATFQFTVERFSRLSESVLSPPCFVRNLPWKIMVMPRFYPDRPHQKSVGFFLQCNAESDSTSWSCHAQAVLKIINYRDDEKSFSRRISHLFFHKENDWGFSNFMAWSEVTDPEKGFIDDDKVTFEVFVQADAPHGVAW

The molecule EQGPADDPGEGPSTG (modifications not checked) [EBNA1^435-449 peptide] returned a Ka of 2.1e+06 M⁻¹, a Kd of 480 nM, a TΔS of -8.69 kcal/mol and a n of 0.81. This molecule also had a ΔG of -8.48 kcal/mol and a ΔH of -17.2 kcal/mol.

The molecule EGASTSGM (modifications not checked) [vIRF4^209-216 peptide] registered a Ka of 100000 M⁻¹, a TΔS of -10.3 kcal/mol, a n of 0.81 and a ΔG of -6.74 kcal/mol. This molecule showed a ΔH of -17.1 kcal/mol.
